A protein production outcome set (Wang et al. 2014)

Experiment: label from the status in PepcDB records
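Further: failed if final PepcDB status was selected cloned or expressed and not failed if soluble or beyond.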

| Sequence | protein production |
| --- | --- |
| MRTEPQPLHLPVFRAILASMGEGIIFADADDRIRYINAAAEDIRGIIAGNYLGRSIVSIHSPASEGRIRRLIAGLKGGDIPFSTRVIHVREKIFENSYYPIRNENGIYEGTLLISRDITEKELLKEENNSLREQVRADFACGGMIGKSHAMEPVFHMIRATAALDSTILISGESGTGKELVACAIHQMSPRHKNPFVKVNCAALPETLLESELFGHERGAFTGAVRERKGKFEQAHLGTIFLDEIGEMPLAAQAKLLRVIQGKTLERIGGNREIAVDVRIIAATNKDLRREVERGAFREDLFYRLNVIPIHLPPLRERREDILPLAEHFLSVYAERMRKPVHCIAPDARKALLDYDYPGNVRELENAIERGVALSMGETITLADLAPYFVTGASAAPAGAALPKEPPTATLSRAVSVAEQEAIREALQTTGNRKGVAAKLLGISRKTLWEKLKQMERT | failed |
| MALRKEDLILIPLVAGVMMGAIDSTIVVLALPTISDDLKAPLSLSIWIILAYLLVAAVSTTQFGRLGDMISRKTIFNSGMAIFTLGSFLCGVSSNIDFLIAFRFVQAAGGSMMQANSGSIIADNFPPNLRGRAYGYTSVGWNSGATLGIVLGGIITTLIGWRYIFYINVPVGIISLYFAIKYIIPGSKKNVKLDVPGVVTLTAALSSIAYAATDFTSHGLETTNETLLSIGFLLLVVFIFLERTNKNALLPFHLFQNRVFNFSIAASFLQSLGYLAVTFIVIMYLQGLRGLTPLDSSLLLVPGYVLGGFTGPIFGKLSDRIGARTPATLGMFLMMIAVLLYMTFNLKTPVYYVIPVSIISGLGSSMFFPANNSAVMASSPAGSYGAASGLLRTMANIGMLGSFVLAITVSTIAIPRYVAFEVFAGVGRLVGGLSASFLTGIHTALEVSFAIIAVGMLFSFVRGKENRSTSTPPRATETTK | failed |
| MDEGRRINIPKIGAVKCKFHRLLEGTPKTLQIVLDVNEWYAVYTCEVPVQPLPETGSTVGVDVGTRYFAITSDGEFVHNPRHLGSALKKLRVQQRTVSRRKKGGNRRRKAVGQVAKTHRKIRRSRQDFHHKVAVKLVRENDLIAHEDLRVSNVVKSNLARSISDVGWSAFFDILRGKAESAGRVVVRVPPQYTSQRCHACGHTCRENRNNEVFKCVSCGHEDHADWNAAKNILGRAVPSGVNGSGVSHAVA | failed |
| MAAKTMRKAEELVEKAMKGNDASHDAWHVWRVRDLALSIAREEGLSSNSDSMEIVELAALLHDIGDYKYIRDPSEEKLVENFLDDEGIEETKKTKILTIINGMGFKDELAGVALCESLPEFGVVQDADRLDAIGAIGIARCFTFGGSRNRVLHDPEIKPRTELTKEQYIKREEQTTINHFHEKLLKLKKLMKTEAGKRRAEKRHKFMEEYLKEFYEEWDGST | failed |
| MTASPLLTAFLPLALGIIMLGLGLSLTLADFARVVKYPKPVVVGLVCQILLLPLVCFLIANGFGLESALAVGLMLLAASPGGTTANLFSHLAHGDVALNITLTAVNSLIAILTMPLLVNLSLSWFMASDQAIPLQFAKVMQVFAIVLLPVALGMLIRHFAPAFAARMEKPMKLVAALFLAFTIVLALAKDWQTVVEYAPVVGLAALLFNLLSLTVGYWVPRLLNISKRQAIAIGMEIGIHNGTLAIALALSPSLLNNATMAVPAALYSLIMFFTAAGFGWWVSRGHVAAEPKGETVN | failed |
| MRQKETTATTRFSLLPGSITRFFLLLIIVLLVTMGVMVQSAVNAWLKDKSYQIVDITHAIQKRVDNWRYVTWQIYDNIAATTSPSSGEGLQETRLKQDVYYLEKPRRKTEALIFGSHDNSTLEMTQRMSTYLDTLWGAENVPWSMYYLNGQDNSLVLISTLPLKDLTSGFKESTVSDIVDSRRAEMLQQANALDERESFSNMRRLAWQNGHYFTLRTTFNQPGHLATVVAFDLPINDLIPPGMPLDSFRLEPDATATGNNDNEKEGTDSVSIHFNSTKIEISSALNSTDMRLVWQVPYGTLLLDTLQNILLPLLLNIGLLALALFGYTTFRHFSSRSTENVPSTAVNNELRILRAINEEIVSLLPLGLLVHDQESNRTVISNKIADHLLPHLNLQNITTMAEQHQGIIQATINNELYEIRMFRSQVAPRTQIFIIRDQDREVLVNKKLKQAQRLYEKNQQGRMIFMKNIGDALKEPAQSLAESAAKLNAPESKQLANQADVLVRLVDEIQLANMLADDSWKSETVLFSVQDLIDEVVPSVLPAIKRKGLQLLINNHLKAHDMRRGDRDALRRILLLLMQYAVTSTQLGKITLEVDQDESSEDRLTFRILDTGEGVSIHEMDNLHFPFINQTQNDRYGKADPLAFWLSDQLARKLGGHLNIKTRDGLGTRYSVHIKMLAADPEVEEEEERLLDDVCVMVDVTSAEIRNIVTRQLENWGATCITPDERLISQDYDIFLTDNPSNLTASGLLLSDDESGVREIGPGQLCVNFNMSNAMQEAVLQLIEVQLAQEEVTESPLGGDENAQLHASGYYALFVDTVPDDVKRLYTEAATSDFAALAQTAHRLKGVFAMLNLVPGKQLCETLEHLIREKDVPGIEKYISDIDSYVKSLL | failed |
| KKTEWSREEEEKLLHLAKLMPTQWRTIAPIIGRTAAQCLEHYEFLLDKAAQRD | not failed |
| MGNVLFLVSLSLIWVMLLYHMFLMQGGFRHYMTFERNIPKWKENVKDLPKVSVLIPAHNEEVVIRQTLKAMVNLYYPKDRLEIIVVNDNSSDRTGDIVDEFSTQYGFIKMVVTKPPHAGKGKSSALNCGFAESNGDVICVYDADNTPEKMAVYYLVLGLMNDQKAGAVVGKFRVINAAKTLLTKFINIETICFQWMAQGGRWKWFKIATIPGTNFAIRRSIIEQLGGWDDKALAEDTELTIRVYNLGYHIRFFPAAVTWEQEPETWKVWWRQRTRWARGNQYVVLKFLAQFFKLKRKRIIFDLFYFFFTYFLFFFGVIMSNAIFVINLFYNLHLSFGFLSIILWVLAFFLFMTKVMITLSIEKTEMNRQNFFIVFLMYFTYSQAWIVLVIYSLFVEIKHRLFKQHGTKQNDTIKRKAGDFFEIYHHMSGKLLADHGDGTSGCSQRRYSRRLDPGGKQPGTSQAASAHKRSLDFIRGKRQRRADVSNTGGRLLYPSAAYT | failed |
| MNKFENFYKVPISYKNRKNEIYKYDNLEYNKMKYGMPEYYRCPYYMHENRNLYNTESCYTPNINVGRNSFYGKTLDPNDKICEENDSVYNILEEDHKEESFKKIECMNKEDDRKKIYNKVEKNDDENIDNKKHNYCEKYEEVYPKDRSSIKIIYNDVDQQIDHNLYDDENEIVCDNEIKKRKKRDRKVFMGKYFFSDIINTIIYPCTNKSLQKYQYGSVENMDYSLYNDIQKGQKIQKVDKIKNKKAPQIIVKF | failed |
| MVHDSALPFDALPMPPQGREGFEECPYLDSQWVADTNGQRMTGQGVDTRFDTPACVFWSYPEAPQATVMVRHMPSEEEAIRVVDWAAPIDTTEPAEEPDGWSGGRAGHEEGAVYAVQKGPVAVVVWSNQQQSLKAELMAKEAIARLGL | not failed |
| MSEAYFRVESGALGPEENFLSLDDILMSHEKLPVRTETAMPRLGAFFLERSAGAETDNAVPQGSKLELPLWLAKGLFDNKRRILSVELPKIYQEGWRTVFSADPNVVDLHKMGPHFYGFGSQLLHFDSPENADISQSLLQTFIGRFRRIMDSSQNAYNEDTSALVARLDEMERGLFQTGQKGLNDFQCWEKGQASQITASNLVQNYKKRKFTDMED | failed |
| MNKKILLIGGGGHCKSVLDSLLDLDEYDDIGIIDTKENVGKAVLGTPILGYDRDLPSLYKDGYHYAFVAVGSIGNPSVRIRLFNTLCEMGFIIPNIVDASAKVSKHSQIDKGVFIGKHVVVNAGAVIGQGAIINSGAIVEHDCEIGEFVHIAPGTVLCGGVKIGRHSHIGTNSTVKQGIHIGSNCLIGMGSVVTKNIRDNVIAYGNPCREVKNLLEHHHHHH | failed |
| MTGEVPGAAAQVFARAEALRDLGRPAEALGLVRQGLASDPHDVTLLVLATTLSLALEDYAQAADFATQAAAQAPGWALPLALLAQARRLADDPAGGKQAAQAALHLDPDEALAHFEVGLATALEAEQAPLWHRRRLLTEARAAASRVEALWPGQADGPALQALIDIVAGHWPQHEANIARALEREPDDSFAHNVRLLGLQARHSGETVPQLYERLRSRPDDVFARSQCVPTFPSRAGCGSIGGAGGGFFHCWW | failed |
| ERRLCAILAADMAGYSRLMERNETDVLNRQKLYRRELIDPAIAQAGGQIVKTTGDGMLARFDTAQAALRCALEIQQAMQQREEDTPRKERIQYRIGINIGDIVLEDGDIFGDAVNVAARLEAISEPGAICVSDIVHQITQDRVSEPFTDLGLQKVKNITRPIRVWQWVPDADRDQSHDPQPSHVQH | not failed |
| MANLFSFLFLGTLGWGMSLYLMKILLVSLTPTEIVLYRMAIGAASLFILAKLFKLKTDNIRGLILDGIIVGTFNMTLPFYLTTYAVKTVSSSLASVINGLTPLCTLILGMVFFSSKQKLGVLNLLSIVLGFIGIIIINSDVSIYQGSAVEFIALLATTISYGVTANYFKYHARTKEPILVSAVSAFVSAITMLIFKCATESSINSWGIPQGMNQIIALLWLGIIGSGFCLYLYCSLIQNAGAVFASMITYLMTITGVIMGMIFLHETISHQVMIGCIFIFFSLILVNHAPLLEKILVSISRQISLKSARRYELNQ | failed |
| MIEWQLAELIPHAGDMILIDQVLDFDEEQINTRLTVRADGLFNQPDGSLPAWLGIELMAQSVAAYAGCQARSKGEAVKLGFLLGSRKFDCNVARFPAGSELHIHAIRSLQDDSGMGVFECTLTGPDITALARLNVYCPPNTADYLAEGAPALEHHHHHH | not failed |
| MQGIKNLTHGPINRQLFNLAMPIMATSFIQMAYSLTDMAWVGRLGSEAVAAIGSVGILTWMSGSISLLNKVGSEVSVGQSIGAQNQEDARQFASHNITIALIISICWGGLLFMFASPIIRIYELEEHITANAIEYLRIISTALPFIFLSAAFTGIYNAAGRSKIPFYISGTGLIMNIILDPLFIFGFGLGTNGAAYATWLSQATVFAIFIYQLRFRKDALLGGFPFFSRLKKKYTRRILKLGLPVATLNTLFAFVNMFLCRTASEQGGHIGLMTFTTGGQIEAITWNTSQGFSTALSAFIAQNFAAGRIERVLKAWHTTLWMTGIFGTFCTLLFVFYGNEVFSIFVPEQAAYEAGGVFLRIDGYSQLFMMLEITMQGVFYGIGRTVPPAIVSIVCNYMRIPLAILFVRMGMGVEGIWWAVCVTTIAKGLILLGWFTMIRKKCLNLPSVSTR | failed |
| HVAGHHLAPTIIAADQHWLLVNWLEGDVVTHAQFIELSNNGQLAQLLTRLHHLPASGYRLDLRAQLIRYAGQIDTKRLSPSWLRLHQHFQRRSPPQPVKLAPLHMDIHPGNLLATPSGLKLIDWEYAADGDIALDIAALFRGNGWSAPQQQAFLQHYCLNEQGYPDIDRLSRQIQRWVPWVDYLMLMWFEVRWQQTGD | failed |
| MPYINELRNHKFLIILVDLLCILAAYIAAFYIRYQGFPAKNWESFVSLLPWILLIGLFFISVYELYALDRKNTLWDILVKIFVAVTFMAFLTMAASYFFREFALPRSILFIASVFTIVLLATWKYVFLKLTRRNVVGKVLFIGDDDNTERMISKIKHPMLKGTSIKQVHPNIPMDKINHYMRHADYIILCTSIQKEKKSMIIYHAMECNKLVYVVPTLYELLLQRSSVTPLDDTMLMSVKPFGLTWDQAFIKRAFDVVTSAFTLICTSPLLPISCNFN | failed |
| MTNGKIWLVVKPTVGVPLFLSAAVIASVVIHAAVLTTTTWLPDYYQGSAKVAAE | failed |
| REIADNTYIVLGTMTLNDFNEYFETDLESDNVDTIAGFYLTGVGTIPSQEEKEHFEVESNGKHLELINDKVKDGRVTKLKILVSEVEEKEDEKD | not failed |
| MDEMRPPPRSRTIYLLPNLFTTAGLFSGFYAIIAAANGQFVQAAMAVFVAAVMDGLDGRVARLTNTSSEFGVQYDSLADLVSFGMAPALVMYHWSLSALKYDSSVMGRVGWSAAFLYAACAALRLARFNTQVGVVDKRWFIGLASPAAAGLMMSFVWAFADDSLGFDGEQLRYVALAVTVVSALLMVSRIRFWSFKGGARGPRADRVPFLALAIATVVIALLVIDLARSLLVIGVLYALSGPLMWLWRRWRRVPELP | failed |
| MMTKKERIAIQRSMAEEALGKLKAIRQLCGAEDSSDSSDMQEVEIWTNRIKELEDWLWGESPIA | not failed |
